Data taken from publication PMC4627230, “Identification of TAX2 peptide as a new unpredicted anti-cancer agent” (Oncotarget, 2015).

Molecular target: T1, CD36, endogenous in HUVECs (human (endogenous in HUVECs), UniProt P16671 1-472)
T1 construct: CD36, endogenous in HUVECs; immunoprecipitated with anti-CD36; also called CD36-containing complexes; source: endogenous, HUVEC whole cell extracts
Test: co-IP; antibody (anti-CD47 B6H12, anti-CD36, anti-FGF2, anti-VEGF, anti-β1 integrin, anti-LRP1 heavy chain) covalently coupled to resin (Pierce Co-IP kit), incubated with whole HUVEC protein lysate (or conditioned media) overnight at 4°C, no cross-linker; cells treated with 100 μM TAX2 or control peptide; for VEGFR2 also 30 ng/mL VEGF for 5 min; immunoblot
Conditions: partners not purified

T1 sequence (P16671 whole entry): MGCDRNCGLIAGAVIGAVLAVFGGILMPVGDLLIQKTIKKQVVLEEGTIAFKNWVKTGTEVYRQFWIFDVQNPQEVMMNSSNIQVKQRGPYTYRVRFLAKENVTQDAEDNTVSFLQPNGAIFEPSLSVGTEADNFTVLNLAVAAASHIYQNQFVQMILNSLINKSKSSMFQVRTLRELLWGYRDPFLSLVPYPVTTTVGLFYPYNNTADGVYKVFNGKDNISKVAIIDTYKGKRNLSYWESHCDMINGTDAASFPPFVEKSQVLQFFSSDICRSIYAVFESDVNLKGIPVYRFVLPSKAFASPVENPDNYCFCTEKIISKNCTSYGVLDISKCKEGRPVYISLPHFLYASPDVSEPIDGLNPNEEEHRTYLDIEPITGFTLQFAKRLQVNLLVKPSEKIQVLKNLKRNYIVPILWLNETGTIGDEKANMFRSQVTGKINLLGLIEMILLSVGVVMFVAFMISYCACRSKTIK

B1: thrombospondin-1 (TSP-1), endogenous in HUVECs (natural protein)
chain: not shown
notes: thrombospondin-1, endogenous in human umbilical vein endothelial cells; detected by anti-TSP-1 (clone A6.1); source: endogenous, HUVEC protein lysate or conditioned media
- fold increase of co-immunoprecipitated TSP-1 with TAX2 (100 μM) against control: 3 fold
